Measurements from the nanobody polyreactivity screen of Harvey et al. (2022).

Assay: yeast display, Sf9 membrane polyspecificity reagent, FACS + sequencing; frameworks hold sequencing errors
Summary of the method: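 Sorting gates, low and high (top ~1%), were placed on anti-HA fluorescence to track expression and on streptavidin fluorescence to track reagent binding. A clone's polyreactivity label is taken from the gate it came out of. The reagent was 10% biotinylated, detergent-solubilized Sf9 membrane, applied for 1 hour at 4 °C to galactose-induced yeast display cells.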

Sequence | polyreactivity (PSR sort gate)
QVQLVESGGGLVQAGGSLRLSCAASGRTFRSNAMGWYRQAPGKERELVAAISKGGDRTYYADSVKGRFTISRDNAKNNVYLHMNSLKPEDTAVYYCAARYTPSRYYYWGQGTQVTVSS | high polyreactivity
QVQLVESGGGLVQAGGSLRLSCAASGRTFRSYAMGWYRQAPGKDRELVAAISYGGGRTFYADSVKGRFTISRDNEKNTVYLQMNSLKPEDTAVYYCNAAFPRSYRFDYWGQGTQLTVSS | high polyreactivity
QVQLVESGGGLVQAGGSLRLSCAASGRTFRSYAMGWYRQAPGKEREFVAAISRSGASTRYADSVKGRFTISRDNAKNTVYLQMNSLKPEDTAVYYCAAVWPDVRGYDYWGQGTQVTVSS | high polyreactivity
QVQLVESGGGLVQAGGSLRLSCAASGRTFRSYAMGWYRQAPGKERELVAAITSGGSTYYADSVKGRFTISRDNAKNTVYLQMNSLKPEDTAVYYCARGDHVGSAGYDYWGQGTQVTVSS | low polyreactivity
QVQLVESGGGLVQAGGSLRLSCAASGRTFRSYAMGWYRQAPGKERELVAGISYNGGSTYYADSVKGRFTISRDNAKNTVYLQMNSLKPEDTAVYYCAATDHYRLYDYWGLGTQVTVSS | low polyreactivity
QVQLVESGGGLVQAGGSLRLSCAASGRTFRSYAMGWYRQAPGKERELVAVISSDGSTYYADSVKGRFTISRDNAKNTVYLQMNSLKPEDTAVYYCAAEYTFEEIGGVEFDYWGQGTQVTVSS | low polyreactivity
QVQLVESGGGLVQAGGSLRLSCAASGRTFRSYVMGWYRQAPGKERELVAAITRSGGSTYYADSVKGRFTISRDNAKNTVYLQMNSLKPEDTAVYYCATDRWYYYPDYYPYGEYDYWGQGTQVTVSS | low polyreactivity
QVQLVESGGGLVQAGGSLRLSCAASGRTFRTYTMGWYRQAPGKEREFVAAITSSGASTYYADSVKGRFTISRDNAKNTVYLEMNSLKPEDTAVYYCAARYGRRLVWVPALLYDYWGQGTQVTVSS | high polyreactivity
QVQLVESGGGLVQAGGSLRLSCAASGRTFRTYTMGWYRQAPGKERELVAAIRSIDGITYYADSVKGRFTISRDNAKTTVDLPKNSLKPEDTAVYYCAARYTASKPMGYWGQGTQVTVSS | high polyreactivity
QVQLVESGGGLVQAGGSLRLSCAASGRTFRTYVMGWYRQAPGKEREFVAGITWSSGSTRYADSVKGRFTISRDNAKNTVYLQMNSLKPEDTAVYYCAASRVHSYNPGYPRYYYWGQGTQVTVSS | high polyreactivity
QVQLVESGGGLVQAGGSLRLSCAASGRTFRVNAMGWYRQAPGKERELVAAITWNGGSTYYADSVKGRFTISRDNAKNTVYLQMNSLKPEDTAVYYCAAKGARYTSRGYYWGQGTQVTVSS | high polyreactivity
QVQLVESGGGLVQAGGSLRLSCAASGRTFRVYAIGWYRQAPGKEREFVATISVRGGSTYYADSVKGRFTISRDNAKNNVYLQMNSLKPEDTAVYFCAADSYPYVYALYDYWGQGTQVTVSS | low polyreactivity
QVQLVESGGGLVQAGGSLRLSCAASGRTFRVYAMGWYRQAPGKERELVAAIRTDDSTNYADSVKGRFTISRDNAKNTVYLQMNSLKPEDTAVYYCNAEGQFTWLGRRRHKFEYWGQGTQVTVSS | low polyreactivity
QVQLVESGGGLVQAGGSLRLSCAASGRTFRVYVMGWYRQAPGKERELVAAIRSDASTNYADSVKGRFTISRDNAKNTVYLQMISLKPEDTAFYYCAARRGKSAGGYGDYYWGQGTQVTVSS | high polyreactivity
QVQLVESGGGLVQAGGSLRLSCAASGRTFRWNAMGWYRQAPGKERELVARISWRGGSTYYADSVKGRFTISRDNAKNTVYLQMNSLKPEDTAVYYCAATSPYYRTGYDYWGQGTQVTVSS | high polyreactivity
QVQLVESGGGLVQAGGSLRLSCAASGRTFRWTAMGWYRQAPGKERELVAAISYSGGSTYYADSVKGRFTISRDNAKNTVYLQMNSLKPEDTAVYYCAKAYSWYPIIRGLDSWGQGTQVTVSS | high polyreactivity
QVQLVESGGGLVQAGGSLRLSCAASGRTFRWYAMGWYRQAPGKERELVAAISGSGDRTYYADSVKGRFTISRDNAKNTVYLQMNSLKPEDTAVYYCNKAYLLYYTYARGDYWGQGTQVTVSS | high polyreactivity
QVQLVESGGGLVQAGGSLRLSCAASGRTFRYNAMGWYREAPGKERELVAAISTRGGSTYYADSVKGRFTISRDNAKNTVYLQMNSLKPEDTAVYYCAVTRRFPGHFEDYYWGQGTQVTVSS | low polyreactivity
QVQLVESGGGLVQAGGSLRLSCAASGRTFRYNAMGWYRQAPGKERELVAAITGGGSTYYADSVKGRFTISRDTAKNTVYLQMNSLKPEDTAVYYCAAANWRRIDYRYRFDYWGQGTQVTVSS | high polyreactivity
QVQLVESGGGLVQAGGSLRLSCAASGRTFRYYAMGWYIQAPGKERELVAAISWRGGSTYYAYSVKGRFTLSRDYAKNTVYLQINSLKPEDTAVYYCAAGILFGHYDYWGQATQVTVSS | high polyreactivity
QVQLVESGGGLVQAGGSLRLSCAASGRTFRYYAMGWYRPAPGKERELVAAITSGGSTYYADSVKGRFTISRDNAKNTVYLQMNSLKPEDTAVYYCNKDFTRTWTRHGDDYWGQGTQVTVSS | high polyreactivity
QVQLVESGGGLVQAGGSLRLSCAASGRTFRYYAMGWYRPAPGKERELVAAITSGGTSTYYADSVKGRFTISRDNAKNTVYLQMYSLKPEDTAVYYCAAGRRSYSFHNVVRGYDYWGQGTQVTVSS | high polyreactivity

Sequence | polyreactivity (PSR sort gate)
QVQLVESGGGLVQAGGSLRLSCAASGRTFRYYAMGWYRQAPGKERELVAAIRANGGSTYYADSVKGRFTISRDNAKNIVYLQMNSLKPEDTAVYYCAALYRRYPYHYDSWGQGTQVTVSS | high polyreactivity
QVQLVESGGGLVQAGGSLRLSCAASGRTFRYYAMGWYRQAPGKERELVAAIRRGGSTTYADSVKVRFTISRDNAKNTVYLQMNSLKPEDTAVYYCAARYPGTRGDGYWGQGTQVTVSS | high polyreactivity
QVQLVESGGGLVQAGGSLRLSCAASGRTFRYYAMGWYRQAPGKERELVAAISRSGGSTYYAVSVKGRFTISRDNAKNTVYLQMNSLTPEVTAVYYCAARYYVPWFGPSKYTPYDYWGQGIQVTVSS | high polyreactivity
QVQLVESGGGLVQAGGSLRLSCAASGRTFRYYAMGWYRQAPGKERELVAAITRGGRTNYADSVKGRFTISRDNAKNTVYLQMNSLKPEDTAVYYCAAVLYTPNKYASYYWGQGTQVTVSS | high polyreactivity
QVQLVESGGGLVQAGGSLRLSCAASGRTFRYYDMGWYRQAPGKEREFVAAITWRGGSTYYADSVKGRFTISRDNAKNTVYLQMNSLKPEDTAVYYCATDSLRLYGGKRDLYYWGQGTQVTVSS | low polyreactivity
QVQLVESGGGLVQAGGSLRLSCAASGRTFRYYSMGWYRQAPGKERELVAAISSRGNTYYADSVKGRFTISRDNAKNTVYLQMNSLKPEDTAVYYCAARNVVTGYRYDYWGHGTQVTVSS | high polyreactivity
QVQLVESGGGLVQAGGSLRLSCAASGRTFRYYTMGSYRPAPGKEREFVAAISSTGGTYYADSVKGRFTISRDNAKNTVYLQMNSLKPEDTAVYYCAKVYFWGALSPDKYDEDYWGQGTQVTVSS | low polyreactivity
QVQLVESGGGLVQAGGSLRLSCAASGRTFRYYTMGWYRQAPGKEREFVAAISSTGGTYYADSVKGRFTISRDNAKNTVYLQMNSLKPEDTAVYYCAAETEDWNEYNYWGQGTQVTVSS | low polyreactivity
QVQLVESGGGLVQAGGSLRLSCAASGRTFRYYTMGWYRQAPGKEREFVAAISSTGGTYYADSVKGRFTISRDNAKNTVYLQMNSLKPEDTAVYYCNATTSSNEYDSWGQGTQVTVSS | low polyreactivity
QVQLVESGGGLVQAGGSLRLSCAASGRTFRYYTMGWYRQAPGKEREFVAALSSTGGTYYADSVKGRFTISRDNAKNTVYLQMNSLKPEDTADYYCNVSSLNSYTSGTTYWGVDYWGQGTQVTVSS | low polyreactivity
QVQLVESGGGLVQAGGSLRLSCAASGRTFRYYTMGWYRQAPGKERELVAAITRNGGRTYYADSVKGRFTISRDNAKNTVYLQMNSLKPEDTAVYYCAAGTYDGGYHYDYWGQGTQVTVSS | high polyreactivity
QVQLVESGGGLVQAGGSLRLSCAASGRTFRYYTMGWYRQAPGKERELVAVISRSGGNTYYADSVKGRFTISRDNAKNTVYLQMNSLKPEDTAVYYCAAKIALDNDYWGQGTQVTVSS | high polyreactivity
QVQLVESGGGLVQAGGSLRLSCAASGRTFSANAMGWYRQAPGKERELVAAISSGGSTTYADSVKGRFTISRDNAKNTVYLQMNSLKPEDTAVYYCAAVWLSLFKGWVDTHEYDYWGQGTQVTVSS | low polyreactivity
QVQLVESGGGLVQAGGSLRLSCAASGRTFSANAMGWYRQAPGTEREGVATMTVRGGSTNYADSVKGRFTISRDNAKNTVYLQMNSLKPEDTAVYYCNAYVNSNVRWAYWGFDYCGQGTQVTVSS | high polyreactivity
QVQLVESGGGLVQAGGSLRLSCAASGRTFSANTMGRYRQAPGKERELVAAITRGASTKYADSVKGRFTISRDNAKNTVYLPMNSLNPDDTAVYYCAAAVAYEYLQYAYTRYYYWGQGTQVTVSS | high polyreactivity
QVQLVESGGGLVQAGGSLRLSCAASGRTFSAYAMGWYRQAPGKERELVAAISTNVGSTYYADSVKGRFTISRDTAKNTVYLQMNSLKPEDTAVYYCAKSWTLSGWNYYYWGQGTQVTVSS | high polyreactivity
QVQLVESGGGLVQAGGSLRLSCAASGRTFSAYVMGWYRQAPGKEREFVATIRRTGSTYYADSVKGRFTISRDNAKNTVYLQMNSLKPEDTAVYYCNRGSFPSVQGSYPGYGYWGQGTQVTVSS | high polyreactivity
QVQLVESGGGLVQAGGSLRLSCAASGRTFSFYAMGWYRQAPGKERELVAAIRSDGGTTYYADSVKGRFTISRDNAKNTVYLQMNSLKPEDTAVYYCNTQSFYFVSYSSSRYLRYYWGQGTQVTVSS | low polyreactivity
QVQLVESGGGLVQAGGSLRLSCAASGRTFSFYAMGWYRQAPGKERELVAAISRGGTTNYADSVKGRFTISRDNAKNTVYLQMNSLKPEDTAVYYCAASYFRRGFYSIYEYDYWGQGTQVTVSS | low polyreactivity
QVQLVESGGGLVQAGGSLRLSCAASGRTFSGYAKGGYRQAPGKERELVAAITSSGSSTYYADSVKGRFTISRDNAKNTVYLQMNSLKPEDTAVYYCAATPQAHSERYYYQRKYDYWGQGTQVTVSS | low polyreactivity
QVQLVESGGGLVQAGGSLRLSCAASGRTFSGYAMGGDIQAPGKERELVAAITARSGSTYYADSVKGRFTISRDNAKNTVYLLMNSLKPEDTAVYYCNAPRYAARFDYWGQGTQVTVSS | high polyreactivity
